The numbers were not newly measured in publication PMC4859759, which cites them from elsewhere.

In the data set the target is VEGFR2 IgG domains 3-5 (Homo sapiens) (UniProt P35968).
Sequence of VEGFR2 IgG domains 3-5 (Homo sapiens) (P35968 224-548): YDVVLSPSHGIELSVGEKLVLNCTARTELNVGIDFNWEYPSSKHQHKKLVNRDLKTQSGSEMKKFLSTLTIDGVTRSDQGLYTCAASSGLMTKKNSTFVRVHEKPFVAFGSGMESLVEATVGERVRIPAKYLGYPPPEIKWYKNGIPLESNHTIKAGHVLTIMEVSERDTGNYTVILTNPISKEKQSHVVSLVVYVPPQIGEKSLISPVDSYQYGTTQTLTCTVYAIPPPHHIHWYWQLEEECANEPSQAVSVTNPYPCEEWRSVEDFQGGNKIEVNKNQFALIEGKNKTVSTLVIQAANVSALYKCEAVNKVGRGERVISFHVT

Sequence of endorepellin (perlecan) LG1/2 (P98160 3687-4103): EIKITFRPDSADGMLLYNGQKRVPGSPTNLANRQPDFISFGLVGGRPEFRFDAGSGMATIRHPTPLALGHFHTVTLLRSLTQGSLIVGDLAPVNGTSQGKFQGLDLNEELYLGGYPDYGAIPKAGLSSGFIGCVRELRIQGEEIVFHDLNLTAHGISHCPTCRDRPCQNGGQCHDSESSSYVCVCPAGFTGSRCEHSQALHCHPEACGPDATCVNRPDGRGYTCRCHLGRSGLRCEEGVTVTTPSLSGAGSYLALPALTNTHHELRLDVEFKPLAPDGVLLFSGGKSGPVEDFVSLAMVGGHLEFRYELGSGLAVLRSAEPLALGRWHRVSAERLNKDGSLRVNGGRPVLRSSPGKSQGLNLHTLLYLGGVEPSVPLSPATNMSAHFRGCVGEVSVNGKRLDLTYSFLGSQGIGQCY

“endorepellin (perlecan) LG1/2 (from UniProt P98160)”: the dissociation constant Kd – broadly, a measure of binding affinity in units of concentration – was 2.8 nM.
